# Reference: patent CN111303280A (INST MILITARY MEDICINE ACADEMY MILITARY SCIENCES PLA, dated 2020)
# B1: 抗SARS-CoV-2全人源单克隆抗体4A8 (antibody, V domains shown)
# VH: EVQLVESGAEVKKPGASVKVSCKVSGYTLTELSMHWVRQAPGKGLEWMGGFDPEDGETMYAQKFQGRVTMTEDTSTDTAYMELSSLRSEDTAVYYCATSTAVAGTPDLFDYYYGMDVWGQGTTVTVSS
# VL: EIVMTQSPLSSPVTLGQPASISCRSSQSLVHSDGNTYLSWLQQRPGQPPRLLIYKISNRFSGVPDRFSGSGAGTDFTLKISRVEAEDVGVYYCTQATQFPYTFGQGTKVDIK
# notes: also called 单抗4A8
# Legend:
# [1] = target: T1, SARS-CoV-2 刺突糖蛋白S (重组S抗原) (SARS-CoV-2, UniProt P0DTC2 16-1213); assay: BLI (Fortebio Octet QKe), 4A8 captured on AHC sensors, S protein as analyte
# [2] = target: T1, SARS-CoV-2 刺突糖蛋白S (重组S抗原); assay: ELISA, coated S antigen 2 μg/mL, HRP anti-human Fc
# SARS-CoV-2 RBD抗原 (重组) = target: T2, SARS-CoV-2 RBD抗原 (重组) (SARS-CoV-2, UniProt P0DTC2 319-541); assay: ELISA, coated RBD antigen 2 μg/mL
# T2 construct: domain: RBD
# SARS-CoV-2 S2抗原 (重组) = target: T3, SARS-CoV-2 S2抗原 (重组) (SARS-CoV-2, UniProt P0DTC2 686-1213); assay: ELISA, coated S2 antigen 2 μg/mL
# T3 construct: domain: S2
binder,measurement,setting,value
B1,Kd,[1],1 nM
same,koff,[1],7.77e-05 s⁻¹
same,kon,[1],77500 M⁻¹ s⁻¹
same,EC50,[2],4.6 ng/mL
same,binding result,SARS-CoV-2 RBD抗原 (重组),no binding (tested: 首孔9ug/ml)
same,binding result,SARS-CoV-2 S2抗原 (重组),no binding (tested: 首孔9ug/ml)
